B1: muM4TS.22 (antibody, V domains shown)
VH: QVQLKESGPGLVAPSQSLSITCTVSGFSLTNYAINWVRQPPGQGLEWLGIIWTGGGTSYNSALKSRLSISKDNSKSQVFLKMNSLQTDDTARYYCARTGTRGYFFDYWGQGTTLTVSS
VL: DIQMNQSPSSLSASLGDTITITCHASQNINVWLSWYQRKPGNIPKLLIYKASNLHTGVPSRFSGSGSGTGFTLTISSLQPEDIATYYCQQGQSFPFTFGSGTKLEIK
B2: HuM4TS.22 (antibody, V domains shown)
VH: QVQLQESGPGLVKPSETLSLTCTVSGFSLTNYAINWVRQPPGKGLEWLGIIWTGGGTSYNSALKSRLTISKDTSKNQVSLKLSSVTAADTAVYYCARTGTRGYFFDYWGQGTLVTVSS
VL: DIQMTQSPSSLSASVGDRVTITCHASQNINVWLSWYQQKPGKAPKLLIYKASNLHTGVPSRFSGSGSGTGFTLTISSLQPEDIATYYCQQGQSFPFTFGGGTKVEIK
B3: HuM4TS.11 (antibody, V domains shown)
VH: QVQLVQSGAEVKKPGASVKVSCKASGYTFTNCWMHWVRQAPGQGLEWIGYINPTTGYSEYNQNFKDKATITADKSTSTAYMELSSLRSEDTAVYYCTSNYGHYDWFGNWGQGTLVT
VL: DIQMTQSPSSLSASVGDRVTITCRASESVDSYGNSFMHWYQQKPGKAPKLLIYRASNLESGIPSRFSGSGSRTDFTLTISSLQPEDVATYYCQQSNEDPPTFGQGTKVEIK
B4: HuM4TS.11(gamma1): same variable domains as HuM4TS.11 but a gamma1 rather than gamma4 heavy chain constant region (antibody, V domains shown)
VL: DIQMTQSPSSLSASVGDRVTITCRASESVDSYGNSFMHWYQQKPGKAPKLLIYRASNLESGIPSRFSGSGSRTDFTLTISSLQPEDVATYYCQQSNEDPPTFGQGTKVEIK
VH: QVQLVQSGAEVKKPGASVKVSCKASGYTFTNCWMHWVRQAPGQGLEWIGYINPTTGYSEYNQNFKDKATITADKSTSTAYMELSSLRSEDTAVYYCTSNYGHYDWFGNWGQGTLVT
B5: HuM4TS.11.2: HuM4TS.11 version in which a few additional human framework residues were changed to their murine counterparts (antibody, V domains shown)
VL: DIVLTQSPSSLSASVGDRVTITCRASESVDSYGNSFMHWYQQKPGKAPKLLIYRASNLESGIPSRFSGGGSRTDFTLTISSLQPEDVATYYCQQSNEDPPTFGQGTKVEIK
VH: QVQLVQSGAEVKKPGASVKVSCKASGYTFTNCWMHWVKQRPGQGLEWIGYINPTTGYSEYNQNFKDKATLTADKSTSTAYIELSSLRSEDTAVYYCTSNYGHYDWFGNWGQGTLVT

Columns and labels:
[1] = biological target: T1, PDGF-R β expressed on transfectant cells (CHO PDGF-R β transfectants, CHO C4 line); Sp2/0 PDGF-R β … (human, UniProt P09619); test: competition with 125I-labeled muM4TS.22 on Sp2/0 PDGF-R β transfectant cells
Procedure: Figure 5: FIG. 5 is a graph depicting competitive binding of muM4TS.22 (closed circles) and HuM4TS.22 (open circles). Increasing concentrations of cold competitor antibodies were incubated with the Sp2/0 transfectants expressing PDGF-R β in the presence of radiolabeled tracer muM4TS.22, and the ratio of bound/free radioactivity determined. The results shown are mean values of triplicate samples.
To assess the ability of HuM4TS.22 to compete with muM4TS.22 for receptor binding, increasing concentrations of the two antibodies were respectively incubated on ice for one hour with Sp2/0 PDGF-R β transfectant cells and a fixed amount of tracer ^125I-labeled muAb. The sample tubes were processed as in the blocking experiment just described. MuM4TS.22 and HuM4TS.22 competed with equal efficiencies (FIG. 5).

[2] = biological target: T1, PDGF-R β expressed on transfectant …; test: competition with 125I-labeled M4TS.11 on Sp2/0 PDGF-R β transfectant cells
Procedure: Figure 11: FIG. 11 is a graph depicting competitive binding of muM4TS.11 (closed squares) and HuM4TS.11 (open squares) and HuM4TS.11(gamma 1) (open diamonds). Increasing concentrations of cold competitor antibodies were incubated with the Sp2/0 transfectants expressing PDGF-R β in the presence of radiolabeled tracer muM4TS.11, and the ratio of bound/free radioactivity determined. The results shown are mean values of triplicate samples.
To assess the ability of HuM4TS.11 to compete with the muAb for receptor binding, increasing concentrations of the two antibodies were respectively incubated on ice for one hour with Sp2/0 PDGF-R β transfectant cells and a fixed amount of tracer ^125I-labeled M4TS.11. The sample tubes were processed as in the blocking experiment described. HuM4TS.11 competed less well than muM4TS.11 (FIG. 11).

PDGF-R β = test: Competition with 125I-labeled murine antibody tracer on Sp2/0 PDGF-R β transfectant cells; format: binding, human; conditions: Sp2/0 PDGF-R β transfectants
Procedure: To assess the ability of HuM4TS.22 to compete with muM4TS.22 for receptor binding, increasing concentrations of the two antibodies were respectively incubated on ice for one hour with Sp2/0 PDGF-R β transfectant cells and a fixed amount of tracer ^125 I-labeled muAb. The sample tubes were processed as in the blocking experiment just described.
To assess the ability of HuM4TS.11 to compete with the muAb for receptor binding, increasing concentrations of the two antibodies were respectively incubated on ice for one hour with Sp2/0 PDGF-R β transfectant cells and a fixed amount of tracer ^125 I-labeled M4TS.11. The sample tubes were processed as in the blocking experiment described. […] The binding affinities calculated from the data were: Ka =5×10^8 M^-1 for the muAb and 3×10^7 M^-1 for the HuAb.

[3] = test system: CHO transfectant cell line expressing PDGF-R β (CHO C4); test: Inhibition of PDGF BB-induced proliferation (3H-thymidine) of CHO C4 cells; format: cell-based, Chinese hamster
Procedure: To determine the ability of muM4TS.11 and muM4TS.22 to block PDGF-mediated proliferation, a CHO transfectant cell line expressing PDGF-R β (CHO C4) was generated, as described above. Proliferation of this line, as measured by incorporation of ^3 H-thymidine by DNA synthesis, is stimulated several-fold by PDGF BB. The CHO PDGF-R β transfectants were plated in a 96-well tissue culture plate at about 50,000 cells/well in Ham's F-12+10% FCS and incubated for 1-2 days. The medium was removed, and the cells were washed once with serum-free medium (Ham's F-12+1 mg/ml BSA) and incubated in this media for 1-2 days to put them in a quiescent state. The appropriate amount of antibody in serum-free medium was added, and after 1-3 hours, 50 ng/ml PDGF BB was added. After overnight incubation, 1 μCi ^3 H-thymidine was added, and after a final 4 hour incubation, the cells were harvested using a PHD cell harvester (Cambridge Technology) and analyzed with a scintillation counter.

Row | Molecule | Ka [1] [M⁻¹] | competition with labeled murine antibody for receptor binding / binding affinity, in words (PDGF-R β) | inhibition of PDGF-mediated proliferation compared with another antibody [3] | further results
1 | B1 | 2.6e+08 | – | – | –
2 | B2 | 4e+08 | – | – | –
3 | B3 | – | – | – | Ka [2]: 3e+07 M⁻¹
4 | B4 | – | higher binding affinity than HuM4TS.11 | about equally well | binding affinity Ka (PDGF-R β; calculated from competitive binding data): 1.6e+08 M⁻¹
5 | B5 | – | the same binding characteristics for PDGF-R β | the same level of inhibition of PDGF-stimulated cell proliferation as does HuM4TS.11 | –

— patent US5882644A, “Monoclonal antibodies specific for the platelet derived growth factor β receptor and methods of use thereof” (Protein Design Labs, Inc., priority 1996, dated 1999)
